Our source for the DnaK concentration in the resuspended RNC pellet values is PMC2572860.

The assay concerns the target apoMb samples (RNCs bearing apoMb nascent polypeptides of increasing length). The assay can be described thus: co-sedimentation.

DnaK, sequence (P0A6Y8 whole entry): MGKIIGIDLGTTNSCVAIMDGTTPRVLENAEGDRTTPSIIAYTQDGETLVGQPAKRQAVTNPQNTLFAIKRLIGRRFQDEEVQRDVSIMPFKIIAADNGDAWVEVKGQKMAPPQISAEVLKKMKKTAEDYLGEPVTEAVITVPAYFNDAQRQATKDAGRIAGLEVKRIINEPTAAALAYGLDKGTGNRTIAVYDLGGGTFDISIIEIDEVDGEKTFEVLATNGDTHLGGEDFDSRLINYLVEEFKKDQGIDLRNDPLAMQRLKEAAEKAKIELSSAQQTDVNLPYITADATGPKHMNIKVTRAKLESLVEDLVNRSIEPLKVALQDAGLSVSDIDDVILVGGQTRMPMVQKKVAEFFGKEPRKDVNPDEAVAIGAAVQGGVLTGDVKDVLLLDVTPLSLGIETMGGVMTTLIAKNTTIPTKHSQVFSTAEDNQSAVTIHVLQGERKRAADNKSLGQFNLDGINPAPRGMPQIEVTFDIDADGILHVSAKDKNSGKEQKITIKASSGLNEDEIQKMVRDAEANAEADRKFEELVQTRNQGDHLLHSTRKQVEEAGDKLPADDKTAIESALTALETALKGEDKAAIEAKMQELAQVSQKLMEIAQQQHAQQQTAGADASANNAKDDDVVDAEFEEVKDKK

Consider “DnaK (from UniProt P0A6Y8 1-638) (natural protein)”, for which the DnaK concentration in the resuspended RNC pellet fell in the range of 20 to 65 nM.
